Experimental data taken from patent US20190263918A1 (SHANGHAI JIAO TONG UNIVERSITY SCHOOL OF MEDICINE, published 2019).

What was measured:
[1] = biological target: T1, human FcγRIIB extracellular domain protein (human, UniProt P31994 43-217); test: SPR; fold against G1
T1 construct: extracellular domain; SPR: His-tagged, immobilised; ELISA: biotinylated; also called hFcγRIIB; CD32b
T1 sequence (looked up): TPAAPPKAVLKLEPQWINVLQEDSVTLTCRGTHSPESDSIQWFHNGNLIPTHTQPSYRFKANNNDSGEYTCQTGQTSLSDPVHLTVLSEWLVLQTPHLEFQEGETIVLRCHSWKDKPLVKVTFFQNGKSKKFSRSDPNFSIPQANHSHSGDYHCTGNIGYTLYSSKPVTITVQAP

[2] = biological target: T2, human FcγRIIIA-F158 extracellular domain protein (human, UniProt P08637 17-208); test: SPR, Biacore T100, FcγR extracellular domain immobilised
T2 construct: extracellular domain; SPR: His-tagged, immobilised; also called hFcγRIIIA-F158; CD16a
T2 sequence (P08637 17-208): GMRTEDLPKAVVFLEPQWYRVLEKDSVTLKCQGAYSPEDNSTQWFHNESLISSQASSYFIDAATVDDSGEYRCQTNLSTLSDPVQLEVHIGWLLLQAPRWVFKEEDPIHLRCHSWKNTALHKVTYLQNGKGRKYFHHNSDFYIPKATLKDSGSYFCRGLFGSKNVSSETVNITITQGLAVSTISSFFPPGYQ

[3] = biological target: T3, human FcγRIIA-R131 extracellular domain protein (human, UniProt P12318 34-217); test: SPR, Biacore T100, FcγR extracellular domain immobilised, 1:1 model
T3 construct: extracellular domain; SPR: His-tagged, immobilised; ELISA: biotinylated; also called hFcγRIIA-R131; CD32a
T3 sequence (looked up): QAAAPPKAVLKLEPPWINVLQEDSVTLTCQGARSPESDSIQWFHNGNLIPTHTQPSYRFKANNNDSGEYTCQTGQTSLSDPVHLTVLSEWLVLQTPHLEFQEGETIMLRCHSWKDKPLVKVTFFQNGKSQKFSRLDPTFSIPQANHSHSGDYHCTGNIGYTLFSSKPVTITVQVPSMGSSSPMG

[4] = biological target: T1, human FcγRIIB extracellular domain …; test: as above
[5] = biological target: T4, human FcγRI extracellular domain protein (human, UniProt P12314 16-292); test: as above
T4 construct: extracellular domain; also called hFcγRI; CD64
T4 sequence (P12314 16-292): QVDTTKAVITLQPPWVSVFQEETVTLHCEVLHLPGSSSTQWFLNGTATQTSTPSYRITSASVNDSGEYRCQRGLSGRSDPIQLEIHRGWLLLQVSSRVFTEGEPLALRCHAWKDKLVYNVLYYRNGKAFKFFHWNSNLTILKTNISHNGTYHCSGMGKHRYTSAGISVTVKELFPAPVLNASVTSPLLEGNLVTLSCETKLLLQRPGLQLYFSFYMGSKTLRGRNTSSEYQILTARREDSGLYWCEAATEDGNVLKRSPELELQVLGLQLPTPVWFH

[6] = biological target: T1, human FcγRIIB extracellular domain …; test: SPR; [lower of KD(hFcγRIIA-R131) and KD(hFcγRIIIA-F158)]/KD(hFcγRIIB)
[7] = biological target: T4, human FcγRI extracellular domain protein; test: SPR, Biacore T100, FcγR extracellular domain immobilised
[8] = biological target: T1, human FcγRIIB extracellular domain …; test: SPR (refers to Table 4, Fc fragments)
[9] = biological target: T3, human FcγRIIA-R131 extracellular domain …; test: ELISA, coated antibody, biotinylated FcγR extracellular domain
Description: The ELISA plate was coated with 100 μL antibody at an appropriate concentration overnight, supernatant being discarded. The plate was blocked with 1% BSA in PBS for 2 hours, followed by washing with PBST (PBS with 0.05% Tween 20). Then, biotinylated FcγR extracellular domain protein (Sino Biologic Inc., Beijing China) at a concentration as appropriate was added and incubated at room temperature for 1 hour, supernatant being discarded, followed by PBST wash. Streptavidin-HRP (BD Biosciences) was added and incubated at room temperature for 1 hour for detection of biotin protein. After removal of supernatant, developing solution was added to react for 20-40 minutes, and absorbance was determined at 650 nm (A650).

B1: Fc fragment of heavy chain constant region V11(H1) (hIgG1 G237D/P238D/H268D/P271G/A330R) (other)
chain: PELLGDDSVFLFPPKPKDTLMISRTPEVTCVVVDVSDEDGEVKFNWYVDGVEVHNAKTKPREEQYNSTYRVVSVLTVLHQDWLNGKEYKCKVSNKALPRPIEKTISKAKGQPREPQVYTLPPSRDELTKNQVSLTCLVKGFYPSDIAVEWESNGQPENNYKTTPPVLDSDGSFFLYSKLTVDKSRWQQGNVFSCSVMHEALHNHYTQKSLSLSPGK
[1]
  folds of increase in hFcγRIIB binding: 94 fold
[2]
  binding result: no binding
[3]
  Kd: 3.8 µM
[4]
  Kd: 14 nM
[5]
  Kd: 230 nM
[6]
  I/A ratio: 271

B2: Fc fragment of heavy chain constant region G2 (hIgG2) (other)
chain: PPVAGPSVFLFPPKPKDTLMISRTPEVTCVVVDVSHEDPEVQFNWYVDGVEVHNAKTKPREEQFNSTFRVVSVLTVVHQDWLNGKEYKCKVSNKGLPAPIEKTISKTKGQPREPQVYTLPPSREEMTKNQVSLTCLVKGFYPSDIAVEWESNGQPENNYKTTPPMLDSDGSFFLYSKLTVDKSRWQQGNVFSCSVMHEALHNHYTQKSLSLSPGK
[1]
  folds of increase in hFcγRIIB binding: < 0.4 fold
[7]
  binding result: no binding

B3: Anti-mCD40-hIgG2-GASDALIE (antibody)
heavy: EVQLVESDGGLVQPGRSLKLPCAASGFTFSDYYMAWVRQAPTKGLEWVASISYDGSSTYYRDSVKGRFTISRDNAKSTLYLQMDSLRSEDTATYYCGRHSSYFDYWGQGVMVTVSSASTKGPSVFPLAPCSRSTSESTAALGCLVKDYFPEPVTVSWNSGALTSGVHTFPAVLQSSGLYSLSSVVTVPSSNFGTQTYTCNVDHKPSNTKVDKTVERKCCVECPPCPAPELLAGPDVFLFPPKPKDTLMISRTPEVTCVVVDVSHEDPEVKFNWYVDGVEVHNAKTKPREEQYNSTYRVVSVLTVLHQDWLNGKEYKCKVSNKALPLPEEKTISKAKGQPREPQVYTLPPSRDELTKNQVSLTCLVKGFYPSDIAVEWESNGQPENNYKTTPPVLDSDGSFFLYSKLTVDKSRWQQGNVFSCSVMHEALHNHYTQKSLSLSPGK
light: DTVLTQSPALAVSPGERVTISCRASDSVSTLMHWYQQKPGQQPKLLIYLASHLESGVPARFSGSGSGTDFTLTIDPVEADDTATYYCQQSWNDPWTFGGGTKLELKRTVAAPSVFIFPPSDEQLKSGTASVVCLLNNFYPREAKVQWKVDNALQSGNSQESVTEQDSKDSTYSLSSTLTLSKADYEKHKVYACEVTHQGLSSPVTKSFNRGEC
notes: Chimeric anti-murine CD40 antibody
[8]
  binding result: binds

B4: Anti-mCD40-hIgG2-NA (antibody)
heavy: EVQLVESDGGLVQPGRSLKLPCAASGFTFSDYYMAWVRQAPTKGLEWVASISYDGSSTYYRDSVKGRFTISRDNAKSTLYLQMDSLRSEDTATYYCGRHSSYFDYWGQGVMVTVSSASTKGPSVFPLAPCSRSTSESTAALGCLVKDYFPEPVTVSWNSGALTSGVHTFPAVLQSSGLYSLSSVVTVPSSNFGTQTYTCNVDHKPSNTKVDKTVERKCCVECPPCPAPPVAGPSVFLFPPKPKDTLMISRTPEVTCVVVDVSHEDPEVQFNWYVDGVEVHNAKTKPREEQFASTFRVVSVLTVVHQDWLNGKEYKCKVSNKGLPAPIEKTISKTKGQPREPQVYTLPPSREEMTKNQVSLTCLVKGFYPSDIAVEWESNGQPENNYKTTPPMLDSDGSFFLYSKLTVDKSRWQQGNVFSCSVMHEALHNHYTQKSLSLSPGK
light: DTVLTQSPALAVSPGERVTISCRASDSVSTLMHWYQQKPGQQPKLLIYLASHLESGVPARFSGSGSGTDFTLTIDPVEADDTATYYCQQSWNDPWTFGGGTKLELKRTVAAPSVFIFPPSDEQLKSGTASVVCLLNNFYPREAKVQWKVDNALQSGNSQESVTEQDSKDSTYSLSSTLTLSKADYEKHKVYACEVTHQGLSSPVTKSFNRGEC
notes: Chimeric anti-murine CD40 antibody, heavy chain constant region G2-NA (N297A)
[9]
  binding result: no binding
